Experiments:
Assay in all cases: ELISA, immobilised recombinant L7/L12 (10 ng/mL), antibody 10 ug/mL
[1] = target: レジオネラ・ニューモフィラ(LP)のリボソームタンパク質L7/L12 (レジオネラ・ニューモフィラ (Legionella pneumophila))
[2] = target: カンピロバクター・ジェジュニ(CJ)のリボソームタンパク質L7/L12 (カンピロバクター・ジェジュニ (Campylobacter jejuni))
[3] = target: クラミジア・トラコマチス(CT)のリボソームタンパク質L7/L12 (クラミジア・トラコマチス (Chlamydia trachomatis))
[4] = target: クレブシエラ・ニューモニエ(KP)のリボソームタンパク質L7/L12 (クレブシエラ・ニューモニエ (Klebsiella pneumoniae))
[5] = target: サルモネラ菌(SE)のリボソームタンパク質L7/L12 (サルモネラ菌 (Salmonella enteritidis))
[6] = target: モラキセラ菌(MC)のリボソームタンパク質L7/L12 (モラキセラ菌 (Moraxella catarrhalis))
[7] = target: リステリア・モノサイトゲネス(LM)のリボソームタンパク質L7/L12 (リステリア・モノサイトゲネス (Listeria monocytogenes))
[8] = target: 淋菌(NG)のリボソームタンパク質L7/L12 (淋菌 (Neisseria gonorrhoeae))
[9] = target: 溶連菌(SPY)のリボソームタンパク質L7/L12 (溶連菌 (Streptococcus pyogenes))
[10] = target: 百日咳菌(BP)のリボソームタンパク質L7/L12 (百日咳菌 (Bordetella pertussis))
[11] = target: 緑膿菌(PA)のリボソームタンパク質L7/L12 (緑膿菌 (Pseudomonas aeruginosa))
[12] = target: 肺炎クラミジア(CP)のリボソームタンパク質L7/L12 (肺炎クラミジア (Chlamydia pneumoniae))
[13] = target: 肺炎マイコプラズマ(MP)のリボソームタンパク質L7/L12 (肺炎マイコプラズマ (Mycoplasma pneumoniae))
[14] = target: 肺炎球菌(SP)のリボソームタンパク質L7/L12 (肺炎球菌 (Streptococcus pneumoniae))
[15] = target: 髄膜炎菌(NM)のリボソームタンパク質L7/L12 (髄膜炎菌 (Neisseria meningitidis))
[16] = target: 黄色ブドウ球菌(SA)のリボソームタンパク質L7/L12 (黄色ブドウ球菌 (Staphylococcus aureus))

Measured: absorbance at 450 nm (absorbance (450 nm))

B1: 汎用性抗体A(PA51B2) (antibody, V domains shown)
VH: QVQLQQPGSVLVRPGASVKLSCKPSGYTFTGSWMHWTKQRPGQGLEWIGEIHPYSGNTNYNEKFRVKATLTVDTSSSTTYVDLSSLTSDDSAVYYCASGDFDAGFTYWGQGTLVTVSA
VL: DIVLTQSPASLAVSLGRRATISCKASQSVDYDGDSYMNWYQQKPGQPPKLLIYVASNLESGIPARFSGSGSGTDFTLNIHPVEEEDAATYYCQQTNEDPFTFGAGTKLELK
> 0.3: [1]

B2: 汎用性抗体C(CP141A190.1) (antibody, V domains shown)
VH: QVQLQQPGAELVKPGASVKLSCKTSGYNFTSNWIHWVKQRPGQGLEWIGEINPSNGRANYNEKFKNKATLTVDKSSSTAFMHLSSLTSEDSAVYFCSRGDFDEGFTYWGQGTLVTVSA
VL: QIVLTQSPAIMSASLGERVTMTCTASSNVNSDYLHWYQQKPGSSPRLWIYTTSNLASGVPTRFSGNGSGTSYSLTISSMEAEDAATYYCHQYHRSPRTFGGGTKLEIK
> 0.3: [1]

B3: 汎用性抗体B(LP54A3) (antibody, V domains shown)
VH: EVQLQQSGAELVKPGASVRLSCSASGFNIKDTYMHWMRQRPEQGLEWIGRIDPANGNAKYDPKFQVKATITADTSSNTASLQFSSLTSEDTAVYFCASESLDDMYYFDYWGQGTTLTVSS
VL: DIVMTQSQKFMSTSVGDRVSVTCKASQNVGVNVAWYQQKPGQSPKALIYSASYRYSGVPDRFTGSGSGTDFTLTISNVQSEDLAEYFCQQYHSYLYTFGGGTKLEIK
> 0.3: all assays above
